Measured values as given in patent publication US20040136982A1.

Legend:
[1] = target: FLAG-sBST2-GST (human) (UniProt Q10589); assay: ELISA, plate coated with FLAG-sBST2-GST, control IgG1 (κ)
[2] = target: FLAG-sBST2-GST (human) (UniProt Q10589); assay: ELISA, plate coated with FLAG-sBST2-GST, control IgG4 (κ)

FLAG-sBST2-GST (human), sequence (Q10589 other isoform, or with tags, fused parts or gaps): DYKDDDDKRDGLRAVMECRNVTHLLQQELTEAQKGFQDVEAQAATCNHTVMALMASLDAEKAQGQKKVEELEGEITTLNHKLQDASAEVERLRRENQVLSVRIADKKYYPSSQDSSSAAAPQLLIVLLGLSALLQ

| Substance | A450 nm/A570 nm [1] [absorbance] | A450 nm/A570 nm [2] [absorbance] |
| --- | --- | --- |
| Control IgG1 (κ) (antibody) | 0.014 | – |
| Control IgG4 (κ) (antibody) | – | 0.013 |
